Laboratory results published in patent US20120316071A1 (published 2012).

B1: Fab VH5-51_IGHD5-18*01>3_IGHJ4*01 G100K/G104T (H:KT) & V3-4_IGLJ1*01 G23A (Fab, V domains shown)
VH: EVQLVQSGAEVKKPGESLKISCKGSGYSFTSYWIGWVRQMPGKGLEWMGIIYPGDSDTRYSPSFQGQVTISADKSISTAYLQWSSLKASDTAMYYCARRKYSYTYDYFDYWGQGTLVTVSS
VL: QTVVTQEPSFSVSPGGTVTLTCALSSGSVSTSYYPSWYQQTPGQAPRTLIYSTNTRSSGVPDRFSGSILGNKAALTITGAQADDESDYYCVLYMGSGISYVFGTGTKVTVL
notes: Fab expressed in E. coli; Plasmid A adds CH1 with His6 and Flag tags to the heavy chain; Plasmid E adds lambda CL to the light chain; also called G100K/G104T & G23A
B2: Fab VH5-51_IGHD5-18*01>3_IGHJ4*01 G100K/G104T (H:KT) & V3-4_IGLJ1*01 S25A (Fab, V domains shown)
VH: EVQLVQSGAEVKKPGESLKISCKGSGYSFTSYWIGWVRQMPGKGLEWMGIIYPGDSDTRYSPSFQGQVTISADKSISTAYLQWSSLKASDTAMYYCARRKYSYTYDYFDYWGQGTLVTVSS
VL: QTVVTQEPSFSVSPGGTVTLTCGLASGSVSTSYYPSWYQQTPGQAPRTLIYSTNTRSSGVPDRFSGSILGNKAALTITGAQADDESDYYCVLYMGSGISYVFGTGTKVTVL
notes: Fab expressed in E. coli; Plasmid A adds CH1 with His6 and Flag tags to the heavy chain; Plasmid E adds lambda CL to the light chain; also called G100K/G104T & S25A
B3: Fab VH5-51_IGHD5-18*01>3_IGHJ4*01 G100K/G104T (H:KT) & V3-4_IGLJ1*01 Y33A (Fab, V domains shown)
VH: EVQLVQSGAEVKKPGESLKISCKGSGYSFTSYWIGWVRQMPGKGLEWMGIIYPGDSDTRYSPSFQGQVTISADKSISTAYLQWSSLKASDTAMYYCARRKYSYTYDYFDYWGQGTLVTVSS
VL: QTVVTQEPSFSVSPGGTVTLTCGLSSGSVSTSAYPSWYQQTPGQAPRTLIYSTNTRSSGVPDRFSGSILGNKAALTITGAQADDESDYYCVLYMGSGISYVFGTGTKVTVL
notes: Fab expressed in E. coli; Plasmid A adds CH1 with His6 and Flag tags to the heavy chain; Plasmid E adds lambda CL to the light chain; also called G100K/G104T & Y33A
B4: Fab VH5-51_IGHD5-18*01>3_IGHJ4*01 G100K/G104T (H:KT) & V3-4_IGLJ1*01 T31A (Fab, V domains shown)
VH: EVQLVQSGAEVKKPGESLKISCKGSGYSFTSYWIGWVRQMPGKGLEWMGIIYPGDSDTRYSPSFQGQVTISADKSISTAYLQWSSLKASDTAMYYCARRKYSYTYDYFDYWGQGTLVTVSS
VL: QTVVTQEPSFSVSPGGTVTLTCGLSSGSVSASYYPSWYQQTPGQAPRTLIYSTNTRSSGVPDRFSGSILGNKAALTITGAQADDESDYYCVLYMGSGISYVFGTGTKVTVL
notes: Fab expressed in E. coli; Plasmid A adds CH1 with His6 and Flag tags to the heavy chain; Plasmid E adds lambda CL to the light chain; also called G100K/G104T & T31A
B5: Fab VH5-51_IGHD5-18*01>3_IGHJ4*01 G104T & V3-4_IGLJ1*01 (wildtype) (Fab, V domains shown)
VH: EVQLVQSGAEVKKPGESLKISCKGSGYSFTSYWIGWVRQMPGKGLEWMGIIYPGDSDTRYSPSFQGQVTISADKSISTAYLQWSSLKASDTAMYYCARRGYSYTYDYFDYWGQGTLVTVSS
VL: QTVVTQEPSFSVSPGGTVTLTCGLSSGSVSTSYYPSWYQQTPGQAPRTLIYSTNTRSSGVPDRFSGSILGNKAALTITGAQADDESDYYCVLYMGSGISYVFGTGTKVTVL
notes: Fab; Expressed in E. coli with CH1 (plasmid A, His6 and Flag tags) and lambda CL (plasmid E); also called G104T & Wildtype
B6: Fab VH5-51_IGHD5-18*01>3_IGHJ4*01 G100K/G104T (H:KT) & V3-4_IGLJ1*01 V29A (Fab, V domains shown)
VH: EVQLVQSGAEVKKPGESLKISCKGSGYSFTSYWIGWVRQMPGKGLEWMGIIYPGDSDTRYSPSFQGQVTISADKSISTAYLQWSSLKASDTAMYYCARRKYSYTYDYFDYWGQGTLVTVSS
VL: QTVVTQEPSFSVSPGGTVTLTCGLSSGSASTSYYPSWYQQTPGQAPRTLIYSTNTRSSGVPDRFSGSILGNKAALTITGAQADDESDYYCVLYMGSGISYVFGTGTKVTVL
notes: Fab expressed in E. coli; Plasmid A adds CH1 with His6 and Flag tags to the heavy chain; Plasmid E adds lambda CL to the light chain; also called G100K/G104T & V29A
B7: Fab VH5-51_IGHD5-18*01>3_IGHJ4*01 G100K/G104T (H:KT) & V3-4_IGLJ1*01 S26A (Fab, V domains shown)
VH: EVQLVQSGAEVKKPGESLKISCKGSGYSFTSYWIGWVRQMPGKGLEWMGIIYPGDSDTRYSPSFQGQVTISADKSISTAYLQWSSLKASDTAMYYCARRKYSYTYDYFDYWGQGTLVTVSS
VL: QTVVTQEPSFSVSPGGTVTLTCGLSAGSVSTSYYPSWYQQTPGQAPRTLIYSTNTRSSGVPDRFSGSILGNKAALTITGAQADDESDYYCVLYMGSGISYVFGTGTKVTVL
notes: Fab expressed in E. coli; Plasmid A adds CH1 with His6 and Flag tags to the heavy chain; Plasmid E adds lambda CL to the light chain; also called G100K/G104T & S26A
B8: Fab VH5-51_IGHD5-18*01>3_IGHJ4*01 G100K/G104T (H:KT) & V3-4_IGLJ1*01 P35A (Fab, V domains shown)
VH: EVQLVQSGAEVKKPGESLKISCKGSGYSFTSYWIGWVRQMPGKGLEWMGIIYPGDSDTRYSPSFQGQVTISADKSISTAYLQWSSLKASDTAMYYCARRKYSYTYDYFDYWGQGTLVTVSS
VL: QTVVTQEPSFSVSPGGTVTLTCGLSSGSVSTSYYASWYQQTPGQAPRTLIYSTNTRSSGVPDRFSGSILGNKAALTITGAQADDESDYYCVLYMGSGISYVFGTGTKVTVL
notes: Fab expressed in E. coli; Plasmid A adds CH1 with His6 and Flag tags to the heavy chain; Plasmid E adds lambda CL to the light chain; also called G100K/G104T & P35A
B9: Fab VH5-51_IGHD5-18*01>3_IGHJ4*01 G100K/G104T (H:KT) & V3-4_IGLJ1*01 L24A (Fab, V domains shown)
VH: EVQLVQSGAEVKKPGESLKISCKGSGYSFTSYWIGWVRQMPGKGLEWMGIIYPGDSDTRYSPSFQGQVTISADKSISTAYLQWSSLKASDTAMYYCARRKYSYTYDYFDYWGQGTLVTVSS
VL: QTVVTQEPSFSVSPGGTVTLTCGASSGSVSTSYYPSWYQQTPGQAPRTLIYSTNTRSSGVPDRFSGSILGNKAALTITGAQADDESDYYCVLYMGSGISYVFGTGTKVTVL
notes: Fab expressed in E. coli; Plasmid A adds CH1 with His6 and Flag tags to the heavy chain; Plasmid E adds lambda CL to the light chain; also called G100K/G104T & L24A
B10: Fab VH5-51_IGHD5-18*01>3_IGHJ4*01 G100K/G104T (H:KT) & V3-4_IGLJ1*01 Y34A (Fab, V domains shown)
VH: EVQLVQSGAEVKKPGESLKISCKGSGYSFTSYWIGWVRQMPGKGLEWMGIIYPGDSDTRYSPSFQGQVTISADKSISTAYLQWSSLKASDTAMYYCARRKYSYTYDYFDYWGQGTLVTVSS
VL: QTVVTQEPSFSVSPGGTVTLTCGLSSGSVSTSYAPSWYQQTPGQAPRTLIYSTNTRSSGVPDRFSGSILGNKAALTITGAQADDESDYYCVLYMGSGISYVFGTGTKVTVL
notes: Fab expressed in E. coli; Plasmid A adds CH1 with His6 and Flag tags to the heavy chain; Plasmid E adds lambda CL to the light chain; also called G100K/G104T & Y34A

Assays:
[1] = molecular target: T1, Recombinant Human DLL4 (R&D Systems Cat#1506-D4/CF) (human, UniProt Q9NR61 27-524); experiment: ECL (Meso Scale Discovery) multispot binding assay, DLL4 immobilised, Fab at 100 nM
T1 construct: Bought recombinant protein; also called delta-like protein 4; Delta-like 4

[2] = molecular target: T2, Recombinant Human DLL4 (delta-like protein 4) (human, UniProt Q9NR61 27-524); experiment: ELISA, DLL4 coated on plate, Fab at 25 nM (2-fold dilution series), absorbance at 450 nm
T2 construct: Bought recombinant human DLL4 coated on the ELISA plate; also called rHuman DLL4

[3] = molecular target: T2, Recombinant Human DLL4 (delta-like …); experiment: ELISA, DLL4 coated on plate, Fab at 50 nM (2-fold dilution series), absorbance at 450 nm
[4] = molecular target: T2, Recombinant Human DLL4 (delta-like …); experiment: ELISA, DLL4 coated on plate, Fab at 100 nM (2-fold dilution series), absorbance at 450 nm
[5] = molecular target: T2, Recombinant Human DLL4 (delta-like …); experiment: ELISA, DLL4 coated on plate, Fab at 12.5 nM (2-fold dilution series), absorbance at 450 nm

Binder	ECL signal [1]	further results
B1	13500	
B2	10200	
B3	7700	
B4	13500	
B5		ELISA signal [2]: 0.18; ELISA signal [3]: 0.17; ELISA signal [4]: 0.17; ELISA signal [5]: 0.19
B6	9320	
B7	11700	
B8	8260	
B9	9630	
B10	2200	
